# Assay results from patent US20230174642A1, “AFFINITY-MATURATED ANTI-ASIC1a ANTIBODIES” (SHANGHAITECH UNIVERSITY, priority 2019, published 2023).
# T1: ASIC1a (Homo sapiens, UniProt P78348)
# T1 construct: expressed in transfected cells
# T1 sequence (P78348 1-528): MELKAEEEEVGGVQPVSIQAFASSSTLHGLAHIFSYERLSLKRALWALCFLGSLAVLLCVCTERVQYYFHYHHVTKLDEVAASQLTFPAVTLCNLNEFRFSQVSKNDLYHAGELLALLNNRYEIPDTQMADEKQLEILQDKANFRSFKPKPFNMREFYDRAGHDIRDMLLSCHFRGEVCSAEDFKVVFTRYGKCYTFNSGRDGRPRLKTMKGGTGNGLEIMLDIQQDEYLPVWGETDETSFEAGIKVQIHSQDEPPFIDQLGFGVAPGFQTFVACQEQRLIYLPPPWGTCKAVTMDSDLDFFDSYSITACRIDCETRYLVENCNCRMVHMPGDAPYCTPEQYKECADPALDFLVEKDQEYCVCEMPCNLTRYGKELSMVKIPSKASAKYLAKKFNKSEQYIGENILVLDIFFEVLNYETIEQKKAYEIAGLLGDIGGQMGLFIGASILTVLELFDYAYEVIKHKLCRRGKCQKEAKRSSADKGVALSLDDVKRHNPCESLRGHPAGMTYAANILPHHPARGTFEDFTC
# Molecular target: T1, ASIC1a
# Test: FLIPR-based fluorescent membrane potential (FMP) assay
# Type: cell-based
# Details: increasing doses, pH 6
# Excerpt: A fluorescence-based assay using the FLIPR Membrane Potential Assay Kit (FMP kit) (Molecular Devices) was used for functional characterization of ASC06-IgG1 and the affinity-matured derivatives thereof. Specifically, the role of ASIC1a in acidosis and the effect of the antibodies of current disclosure was probed further. The FMP dye in the kit is a lipophilic, anionic, bis-oxonol dye, which permits a sensitive evaluation of changes in membrane potential with a more rapid response time. Using the FMP kit, a sensitive cell-based assay to detect acid-induced ASIC1a currents was developed using a cell line stably expressing ASIC1a. The ASIC1a-expressing stable cells were seeded in 96-well plates. The cells were treated with different concentrations of ASC06-IgG1. Untreated cells were used as a negative control. ASIC1a was stimulated by inducing acidosis by decreasing the extracellular pH to 6, and the changes in the fluorescent signal of the FMP dye were measured. An isotype control was used as a negative control for binding. […] The assay was applied to detect the efficiency of inhibition of ASIC1a currents by ASC06-IgG1, and affinity-matured derivatives thereof.
# Using similar assays, the IC50 values for inhibition of ASIC1a currents were calculated based on the maximal fluorescent intensity of each concentration of antibodies compared to the negative control.
molecule,measurement,value
"ASC06-IgG1: parental (WT) ASIC1a-specific antagonist antibody; VL SEQ ID NO: 2, VH SEQ ID NO: 7, VH-CDR3 DSFYGYSKGD (antibody, V domains shown, IgG1 constant regions; Amino acid sequence VH of ASC06; Amino acid sequence VL of ASC06) VH: QVQLQQSGGGLVQPGGSLRLSCAASGFTFSSYAMSWVRQAPGKGLEWVSAISGSGGSTYYADSVKGRFTISRDNSKNTLYLQMNSLRAEDTAVYYCAKDSFYGYSKGDWGQGTLVTVSS VL: QSALTQPASVSGSPGQSITISCTGTSSDVGAYNYVSWYQQQPGKAPKLMIYGVSNRPSGVSNRFSGSKSGNAASLTISGLQAEDEADYYCSSYTSSSTYVFGTGTKLTVLG",inhibition of the fluorescent intensities (ASIC1a-mediated current),dose-dependent inhibition
